This is an account of results in patent US20080118529A1 (published 2008).

The chains are these.
B1: Tissue-type plasminogen activator (tPA, Actilyse, Boehringer-Ingelheim) (enzyme, human, UniProt P00750 36-562, looked up)
chain: SYQVICRDEKTQMIYQQHQSWLRPVLRSNRVEYCWCNSGRAQCHSVPVKSCSEPRCFNGGTCQQALYFSDFVCQCPEGFAGKCCEIDTRATCYEDQGISYRGTWSTAESGAECTNWNSSALAQKPYSGRRPDAIRLGLGNHNYCRNPDRDSKPWCYVFKAGKYSSEFCSTPACSEGNSDCYFGNGSAYRGTHSLTESGASCLPWNSMILIGKVYTAQNPSAQALGLGKHNYCRNPDGDAKPWCHVLKNRRLTWEYCDVPSCSTCGLRQYSQPQFRIKGGLFADIASHPWQAAIFAKHRRSPGERFLCGGILISSCWILSAAHCFQERFPPHHLTVILGRTYRVVPGEEEQKFEVEKYIVHKEFDDDTYDNDIALLQLKSDSSRCAQESSVVRTVCLPPADLQLPDWTECELSGYGKHEALSPFYSERLKEAHVRLYPSSRCTSQHLLNRTVTDNMLCAGDTRSGGPQANLHDACQGDSGGPLVCLNDGRMTLVGIISWGLGCGQKDVPGVYTKVTNYLDWIRDNMRP
notes: also called full-length tPA; recombinant human tPA

Experiment [1] concerns the target T1, human factor XII from plasma (Calbiochem, #233490) (human, UniProt P00748 20-615).
T1 construct: also called FXII
T1 sequence (looked up): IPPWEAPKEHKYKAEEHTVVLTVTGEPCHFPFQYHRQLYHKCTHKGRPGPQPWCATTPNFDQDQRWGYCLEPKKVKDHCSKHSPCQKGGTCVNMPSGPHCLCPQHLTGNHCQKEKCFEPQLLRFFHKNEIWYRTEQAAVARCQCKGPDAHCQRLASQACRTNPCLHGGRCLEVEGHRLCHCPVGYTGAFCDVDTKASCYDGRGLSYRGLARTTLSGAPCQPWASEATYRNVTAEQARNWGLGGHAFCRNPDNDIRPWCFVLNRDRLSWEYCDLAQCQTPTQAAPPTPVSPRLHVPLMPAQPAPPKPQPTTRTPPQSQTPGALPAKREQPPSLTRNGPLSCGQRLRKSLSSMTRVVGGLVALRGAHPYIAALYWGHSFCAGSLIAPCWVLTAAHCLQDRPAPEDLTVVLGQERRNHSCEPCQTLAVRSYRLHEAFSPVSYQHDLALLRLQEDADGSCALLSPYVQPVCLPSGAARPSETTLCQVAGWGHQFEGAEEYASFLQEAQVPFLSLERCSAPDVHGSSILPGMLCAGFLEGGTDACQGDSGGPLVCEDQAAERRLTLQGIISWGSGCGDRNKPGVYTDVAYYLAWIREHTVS
Put plainly: ELISA; factor XII incubated with DXS500k or buffer immobilized, overlaid with tPA in 10 mM εACA.

The target in the next experiment is T2, albumin (ICN, 160069) (bovine, UniProt P02769 25-607).
T2 construct: also called bovine serum albumin (ICN, #160069, fraction V)
Put plainly: ELISA; protein incubated with DXS500k or buffer immobilized, overlaid with tPA in 10 mM εACA.

Experiment [2] has as its target B1. As to the kind of experiment: ELISA: tPA coated, concentration series of β2GPI, detection with monoclonal antibody 2B2.
For experiment [3], the target named is T1, human factor XII from plasma …. As to the kind of experiment: ELISA: factor XII coated, concentration series of β2GPI, detection with monoclonal antibody 2B2.

“And” between values parts separate entries of the source, which are not always exact repeats. Identical values can stand only once.

T2 sequence (P02769 25-607 limits assumed): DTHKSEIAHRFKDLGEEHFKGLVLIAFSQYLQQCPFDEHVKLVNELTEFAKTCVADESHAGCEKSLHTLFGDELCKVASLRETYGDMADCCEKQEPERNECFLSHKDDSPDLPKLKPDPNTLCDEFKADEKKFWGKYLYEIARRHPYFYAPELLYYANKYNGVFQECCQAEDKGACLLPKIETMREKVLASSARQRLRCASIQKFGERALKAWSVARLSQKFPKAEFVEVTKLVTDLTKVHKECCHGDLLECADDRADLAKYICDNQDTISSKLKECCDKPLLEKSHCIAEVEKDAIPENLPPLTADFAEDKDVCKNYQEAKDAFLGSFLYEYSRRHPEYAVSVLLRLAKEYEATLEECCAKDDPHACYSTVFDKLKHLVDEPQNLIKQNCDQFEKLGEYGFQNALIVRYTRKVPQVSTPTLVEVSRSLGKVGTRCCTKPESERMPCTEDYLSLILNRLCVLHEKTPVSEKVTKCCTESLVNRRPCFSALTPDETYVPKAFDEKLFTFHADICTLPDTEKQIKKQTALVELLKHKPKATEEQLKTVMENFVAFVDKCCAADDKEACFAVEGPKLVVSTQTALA

B1: the binding result in experiment [1] is recorded as “binds”. For the same molecule, the “factor of increase in tPA binding (protein exposed to DXS500k against protein in buffer only)” value with albumin (ICN, 160069) turned out to be 1.3 fold.

B2: recombinant human β2-glycoprotein I (made in insect cells) (other, UniProt P02749 20-345, looked up)
chain: GRTCPKPDDLPFSTVVPLKTFYEPGEEITYSCKPGYVSRGGMRKFICPLTGLWPINTLKCTPRVCPFAGILENGAVRYTTFEYPNTISFSCNTGFYLNGADSAKCTEEGKWSPELPVCAPIICPPPSIPTFATLRVYKPSAGNNSLYRDTAVFECLPQHAMFGNDTITCTTHGNWTKLPECREVKCPFPSRPDNGFVNYPAKPTLYYKDKATFGCHDGYSLDGPEEIECTKLGNWSAMPSCKASCKVPVKKATVVYQGERVKIQEKFKNGMLHGDKVSFFCKNKEKKCSYTEDAQCIDGTIEVPKCFKEHSSLAFWKTDASDVKPC
notes: also called recombinant β2GPI; rec. β2GPI
Turning to B2, the Kd in experiment [2] is 2.3 µg/mL and 51 nM; in experiment [3] it was 0.9 µg/mL and 20 nM.
